The source of these data is US20240117061A1 (WUHAN YZY BIOPHARMA, published 2024).

Test [1] has as its target T1, recombinant cynomolgus monkey cynoBCMA-his (ACRO Biosystem, Cat. No. BCA-052H7) (cynomolgus monkey, UniProt A0A2K5UD97 1-53).
T1 construct: extracellular domain; Bought protein; also called cynomolgus/rhesus macaque BCMA/TNFRSF17 protein; not shown: His tag
The test can be described thus: ELISA, coated antigen. Summed up: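 Plates coated overnight at 4° C with 0.5 μg/mL His-tagged BCMA antigen (human or cynomolgus) in PBS pH 7.4, then blocked with 3% BSA. Humanized antibodies in 3-fold serial dilutions (11 points) were bound 1 h at room temperature. Detection used HRP anti-His antibody and TMB, read as OD450.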
(In an ELISA, binding on a coated surface is turned into a signal by an enzyme label.)

Test [2] has as its target T2, cynomolgus monkey BCMA on HEK293 cynoBCMA cells (cynomolgus monkey, UniProt A0A2K5UD97 1-183).
T2 construct: whole, on cells
Kind of test: flow cytometry on HEK293 cynoBCMA cells. The procedure:
Procedures: The cells were resuspended in PBS, and the cell density was adjusted to 2×10^5 cells/well. Human-mouse chimeric monoclonal antibodies were added to a 96-well plate at 50 μL/well and serially 3-fold diluted from 3000 nM to the 9th concentration. The plate was incubated for 1 h at 4° C. 150 μL of precooled PBS containing 1% of FBS was added into the 96-well plate after the co-incubation with the primary antibody was finished. The mixtures were centrifuged at 300×g for 5 min and the supernatants were discarded. The above procedures were repeated once. The fluorescent secondary antibody PE anti-human IgG Fc (Biolegend, 409304) was added at 80 μL/well. The plate was incubated at 4° C. for 30 min. 150 μL of precooled PBS containing 1% of FBS was added into the 96-well plate after the co-incubation with the secondary antibody was finished. The 96-well plate was centrifuged at 300×g for 5 min and the supernatants were discarded. The above procedures were repeated once. The cells were resuspended in 100 μL of PBS containing 1% of FBS and detected on a flow cytometry (BD Accuri™ C6).

In test [3] the target is T1, recombinant cynomolgus monkey …. Kind of test: SPR (Biacore T200), anti-His capture on CM5, 1:1 fit. Background: SPR reads the build-up and loss of mass on a sensor chip optically.
For test [4], the target named is T3, recombinant human BCMA-his fusion protein (ACRO Biosystem, Cat. No. BCA-H522y) (human, UniProt Q02223 1-54).
T3 construct: extracellular domain; Bought protein; also called huBCMA-his; hu BCMA-his; not shown: His tag
T3 sequence (looked up): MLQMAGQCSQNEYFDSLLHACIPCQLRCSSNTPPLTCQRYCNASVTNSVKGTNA
The test can be described thus: competitive ELISA: huBCMA-his coated, varied antibody added first, then APRIL-biotin, streptavidin-peroxidase, OD450; blocked ligand APRIL. As to the method: The 96-well microplate was treated with 100 μL of 0.5 μg/mL huBCMA-his in PBS and incubated overnight at 4° C. The plate was then washed thrice with PBS washing buffer containing 0.1% of Tween-20 and blocked with 300 μL of PBS containing 1% of BSA for 2 h. 100 μL of each BCMA antibody was added to the plate. […] The plate was incubated at 37° C. for 1 h, and unbound secondary antibody was washed with PBS washing buffer containing 0.1% of Tween-20. The TMB chromogenic solution was added at 100 μL/well. After a 5-min reaction at room temperature, 2 M H₂SO₄ was added at 100 μL/well to terminate the reaction. The microplate was placed on a microplate reader (Molecular Devices, SPECTRA Max plus 384) and the absorbance OD450 value was read at 450 nm wavelength.

T1 sequence (A0A2K5UD97 entry or part of it): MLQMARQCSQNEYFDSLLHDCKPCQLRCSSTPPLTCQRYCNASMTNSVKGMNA
T2 sequence (A0A2K5UD97 entry or part of it): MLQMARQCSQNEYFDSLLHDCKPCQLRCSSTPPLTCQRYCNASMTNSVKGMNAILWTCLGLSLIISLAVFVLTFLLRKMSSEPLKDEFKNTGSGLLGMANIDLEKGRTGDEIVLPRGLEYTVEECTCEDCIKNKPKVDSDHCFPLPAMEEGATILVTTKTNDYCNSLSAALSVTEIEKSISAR

B1: human-mouse chimeric antibody c-mAb3 (antibody, human IgG1, V domains shown)
VH: EVQLQQSGPELVKPGASVKILCKASGYTITDYNMDWVKRSHGKSLEWIGNINPHNGGSIYNQKFKGKATLTVDKSSSTAFMELRSLTSEDTAVYYCARGDATLVLDYWGQGTSLTVSS
VL: DIVLTQSPASLAVSLGQRATISCRASKSVSTSGLSYMHWYQQKPGQPPKVLIYLASNLESGVPARFSGSGSGTDFTLNIHPVEEEDAATYYCQHSRELPPTFGAGTKLELK
notes: not shown: human IgG1 heavy chain constant region, GenBank No. AK303185.1; human kappa light chain constant region, GenBank No. MG815648.1
On to B1, for which, in test [1], the concentration giving a half-maximal response (EC50) came to 0.0248 nM. The molecule further showed an EC50 in test [2] of 2.66 nM. Moreover, in test [3], the Kd was 0.106 nM, the koff is 0.000373 s⁻¹ and the on-rate (kon) worked out at 3.54e+06 M⁻¹ s⁻¹. Also, the “IC50 (read off the curve)” value in test [4] was approximately 0.4 µg/mL.

By EC50 is commonly meant the concentration that produces a half-maximal response. As usually defined, the Kd is the constant that tells how readily two partners part at equilibrium. Broadly, the koff is the rate constant with which the complex falls apart. For orientation: kon means the second-order rate constant of association.
